Measurements published in patent US20060135432A1 (NEUROGENEX, published 2006).
[ ]: non-standard residue; d: D form. dPhe(4-Cl) = N[C@H](Cc1ccc(Cl)cc1)C(=O)O; d2Nal = N[C@H](Cc1ccc2ccccc2c1)C(=O)O; dCit = NC(=O)NCCC[C@@H](N)C(=O)O; d3Pal = N[C@H](Cc1cccnc1)C(=O)O; pGlu = O=C1CC[C@@H](C(=O)O)N1

T1: rat GnRHR (rat, UniProt P30969 1-327)
T1 sequence (looked up): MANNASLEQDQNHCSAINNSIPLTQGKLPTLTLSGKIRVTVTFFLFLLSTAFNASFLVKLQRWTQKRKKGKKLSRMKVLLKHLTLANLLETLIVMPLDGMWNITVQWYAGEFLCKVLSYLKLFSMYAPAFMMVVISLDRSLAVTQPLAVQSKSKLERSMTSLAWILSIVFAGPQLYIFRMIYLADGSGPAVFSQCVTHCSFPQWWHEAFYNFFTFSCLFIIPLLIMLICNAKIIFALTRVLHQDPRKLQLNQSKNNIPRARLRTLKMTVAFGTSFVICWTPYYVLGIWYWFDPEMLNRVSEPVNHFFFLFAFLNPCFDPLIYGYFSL


Columns and labels:
rat GnRHR [1] = target: T1, rat GnRHR; assay: cell-based or functional assay
bfGnRHR-1 [2] = target: bfGnRHR-1 (bullfrog); assay: cell-based or functional assay
bfGnRHR-2 [3] = target: bfGnRHR-2 (bullfrog); assay: cell-based or functional assay
bfGnRHR-3 [4] = target: bfGnRHR-3 (bullfrog); assay: cell-based or functional assay
rat GnRHR [5] = target: T1, rat GnRHR; assay: cell-based or functional assay; remark: listed apart in the source
Primate GnRH-2 receptor [6] = target: T2, Primate GnRH-2 receptor (Primate (from a CV-1 cell genome)); assay: cell-based or functional assay
bfGnRHR-3 [7] = target: T3, bfGnRHR-3 (bullfrog); assay: displacement of I^125-GnRH-2 from membranes of GH3 cells expressing bfGnRHR-3
T3 construct: whole, on cells; also called bullfrog GnRH receptor 3; bfGnRH receptor
Description: (§1) After 48 hours, the cells were homogenized to obtain cellular membranes, which were then dissolved in binding buffer (40 mM Tris, pH 7.4, 2 mM MgCl₂).

rat GnRHR [8] = target: T1, rat GnRHR; assay: displacement of I^125-GnRH-2 from membranes of GH3 cells expressing rat GnRHR
Description: as §1

bfGnRHR-1 [9] = target: bfGnRHR-1 (bullfrog); assay: cell-based or functional assay; remark: listed apart in the source
bfGnRHR-2 [10] = target: bfGnRHR-2 (bullfrog); assay: cell-based or functional assay; remark: listed apart in the source
bfGnRHR-2 [11] = target: bfGnRHR-2 (bullfrog); assay: cell-based or functional assay; remark: listed apart in the source
Primate GnRH-2 receptor [12] = target: T2, Primate GnRH-2 receptor; assay: cell-based or functional assay; remark: listed apart in the source

Binder	Log EC50, inositol phosphate production in GH3 cells expressing the receptor (bfGnRHR-1 [2])	Log EC50, inositol phosphate production in GH3 cells expressing the receptor (bfGnRHR-2 [3])	Log EC50, inositol phosphate production in GH3 cells expressing the receptor (bfGnRHR-3 [4])	Emax (fold-induction), luciferase activation (Primate GnRH-2 receptor [6]) [fold-induction]	Ratio^a (EC50 relative to the EC50 of GnRH-2), luciferase activation (Primate GnRH-2 receptor [6])	log IC50 (bfGnRHR-3 [7])	other results
[pGlu]HWSHGWYPG-NH2 (also: I-125 radiolabelled form used as tracer, Purchased from Sigma Co; also called gonadotropin-releasing hormone-2; cGnRH-II) [GnRH-2]	-9.41 log EC50 (concentration unit not printed)	-8.98 log EC50 (concentration unit not printed)	-9.51 log EC50 (concentration unit not printed)	11.7	1 ratio to GnRH-2	-8.63 log IC50 (concentration unit not printed)	inositol phosphate production, sensitivity compared with GnRH-1 (rat GnRHR [1]): 10 fold lower sensitivity than GnRH-1; Log EC50, inositol phosphate production in GH3 cells expressing the receptor (rat GnRHR [5]): -8.06 log EC50 (concentration unit not printed); log IC50 (rat GnRHR [8]): -6.08 log IC50 (concentration unit not printed)
[pGlu]HWSH[dW]WYPG-NH2 (SMILES NC(=O)CNC(=O)[C@@H]1CCCN1C(=O)[C@H](Cc1ccc(O)cc1)NC(=O)[C@H](Cc1c[nH]c2ccccc12)NC(=O)[C@@H](Cc1c[nH]c2ccccc12)NC(=O)[C@H](Cc1c[nH]cn1)NC(=O)[C@H](CO)NC(=O)[C@H](Cc1c[nH]c2ccccc12)NC(=O)[C@H](Cc1c[nH]cn1)NC(=O)[C@@H]1CCC(=O)N1) [[D-Trp^6]GnRH-2]	-9.4 log EC50 (concentration unit not printed)	-9.21 log EC50 (concentration unit not printed)	-9.22 log EC50 (concentration unit not printed)	11.2	1.2 ratio to GnRH-2	-8.1 log IC50 (concentration unit not printed)	Log EC50, inositol phosphate production in GH3 cells expressing the receptor (rat GnRHR [5]): -7.92 log EC50 (concentration unit not printed); log IC50 (rat GnRHR [8]): -7.01 log IC50 (concentration unit not printed)
[pGlu]HWSH[dA]WYPG-NH2 (SMILES C[C@@H](NC(=O)[C@H](Cc1c[nH]cn1)NC(=O)[C@H](CO)NC(=O)[C@H](Cc1c[nH]c2ccccc12)NC(=O)[C@H](Cc1c[nH]cn1)NC(=O)[C@@H]1CCC(=O)N1)C(=O)N[C@@H](Cc1c[nH]c2ccccc12)C(=O)N[C@@H](Cc1ccc(O)cc1)C(=O)N1CCC[C@H]1C(=O)NCC(N)=O, Chemically synthesised by AnyGen Co) [[D-Ala^6]GnRH-2]	-9.91 log EC50 (concentration unit not printed)	-9.91 log EC50 (concentration unit not printed)	-9.89 log EC50 (concentration unit not printed)	11.8	0.38 ratio to GnRH-2	-9.83 log IC50 (concentration unit not printed)	inositol phosphate production, concentration needed compared with GnRH-2 (bfGnRHR-1 [9]): ~8 fold lower concentration than GnRH-2; inositol phosphate production, sensitivity compared with GnRH-1 (rat GnRHR [1]): 10 fold lower sensitivity than GnRH-1; Log EC50, inositol phosphate production in GH3 cells expressing the receptor (rat GnRHR [5]): -8.49 log EC50 (concentration unit not printed); log IC50 (rat GnRHR [8]): -6.85 log IC50 (concentration unit not printed)
EHWSYGLRPG (pyroGlu at 1; C-terminal amide (GlyNH2); radiolabelled with I^125 where used as tracer in Example 4, also called mGnRH; mammalian GnRH) [GnRH-1]	-8.52 log EC50 (concentration unit not printed)	-5.59 log EC50 (concentration unit not printed)	-8.42 log EC50 (concentration unit not printed)			-7.32 log IC50 (concentration unit not printed)	inositol phosphate production, concentration needed compared with GnRH-2 (bfGnRHR-2 [10]): ~1000 fold higher concentration than GnRH-2
[pGlu]HWSH[dK]WYPG-NH2 (SMILES NCCCC[C@@H](NC(=O)[C@H](Cc1c[nH]cn1)NC(=O)[C@H](CO)NC(=O)[C@H](Cc1c[nH]c2ccccc12)NC(=O)[C@H](Cc1c[nH]cn1)NC(=O)[C@@H]1CCC(=O)N1)C(=O)N[C@@H](Cc1c[nH]c2ccccc12)C(=O)N[C@@H](Cc1ccc(O)cc1)C(=O)N1CCC[C@H]1C(=O)NCC(N)=O) [[D-Lys^6]GnRH-2]				11.7	0.66 ratio to GnRH-2		
[pGlu]HWSH[dA]LYPG-NH2 (SMILES CC(C)C[C@H](NC(=O)[C@@H](C)NC(=O)[C@H](Cc1c[nH]cn1)NC(=O)[C@H](CO)NC(=O)[C@H](Cc1c[nH]c2ccccc12)NC(=O)[C@H](Cc1c[nH]cn1)NC(=O)[C@@H]1CCC(=O)N1)C(=O)N[C@@H](Cc1ccc(O)cc1)C(=O)N1CCC[C@H]1C(=O)NCC(N)=O) [[D-Ala^6, Leu^7]GnRH-2]				9.04	2.51 ratio to GnRH-2		
[pGlu]HWSL[dA]WYPG-NH2 (SMILES CC(C)C[C@H](NC(=O)[C@H](CO)NC(=O)[C@H](Cc1c[nH]c2ccccc12)NC(=O)[C@H](Cc1c[nH]cn1)NC(=O)[C@@H]1CCC(=O)N1)C(=O)N[C@H](C)C(=O)N[C@@H](Cc1c[nH]c2ccccc12)C(=O)N[C@@H](Cc1ccc(O)cc1)C(=O)N1CCC[C@H]1C(=O)NCC(N)=O) [[Leu^5, D-Ala^6]GnRH-2]				6.22	11 ratio to GnRH-2		
[pGlu]HWSH[dA]YWPG-NH2 (SMILES C[C@@H](NC(=O)[C@H](Cc1c[nH]cn1)NC(=O)[C@H](CO)NC(=O)[C@H](Cc1c[nH]c2ccccc12)NC(=O)[C@H](Cc1c[nH]cn1)NC(=O)[C@@H]1CCC(=O)N1)C(=O)N[C@@H](Cc1ccc(O)cc1)C(=O)N[C@@H](Cc1c[nH]c2ccccc12)C(=O)N1CCC[C@H]1C(=O)NCC(N)=O) [[D-Ala^6, Tyr^7, Trp^8]GnRH-2]				12.8	6.61 ratio to GnRH-2		
[pGlu]HWSY[dA]WLPG-NH2 (SMILES CC(C)C[C@H](NC(=O)[C@H](Cc1c[nH]c2ccccc12)NC(=O)[C@@H](C)NC(=O)[C@H](Cc1ccc(O)cc1)NC(=O)[C@H](CO)NC(=O)[C@H](Cc1c[nH]c2ccccc12)NC(=O)[C@H](Cc1c[nH]cn1)NC(=O)[C@@H]1CCC(=O)N1)C(=O)N1CCC[C@H]1C(=O)NCC(N)=O) [[Tyr^5, D-Ala^6, Leu^8]GnRH-2]				7.35	3.01 ratio to GnRH-2		
Ac-[d2Nal][dPhe(4-Cl)][d3Pal]SY[dCit]WYP[dA]-NH2 [Trptorelix-1]							inhibition of GnRH-2-induced IP production, sensitivity compared with Cetrorelix (bfGnRHR-2 [10]): 100 fold more sensitive than Cetrorelix; Log IC50, inhibition of GnRH-2-induced inositol phosphate production in GH3 cells expressing the receptor (bfGnRHR-2 [11]): -8.1 log IC50 (concentration unit not printed); Log IC50, inhibition of GnRH-2-induced c-fos-luc luciferase activity (Primate GnRH-2 receptor [12]): -5.74 log IC50 (concentration unit not printed)
Ac-[d2Nal][dPhe(4-Cl)][d3Pal]SY[dCit]LRP[dA]-NH2 [Cetrorelix]							Log IC50, inhibition of GnRH-2-induced inositol phosphate production in GH3 cells expressing the receptor (bfGnRHR-2 [11]): -6.43 log IC50 (concentration unit not printed)
Ac-[d2Nal][dPhe(4-Cl)][d3Pal]SH[dCit]WYP[dA]-NH2 (SMILES CC(=O)N[C@H](Cc1ccc2ccccc2c1)C(=O)N[C@H](Cc1ccc(Cl)cc1)C(=O)N[C@H](Cc1cccnc1)C(=O)N[C@@H](CO)C(=O)N[C@@H](Cc1c[nH]cn1)C(=O)N[C@H](CCCNC(N)=O)C(=O)N[C@@H](Cc1c[nH]c2ccccc12)C(=O)N[C@@H](Cc1ccc(O)cc1)C(=O)N1CCC[C@H]1C(=O)N[C@H](C)C(N)=O) [Trptorelix-2]							Log IC50, inhibition of GnRH-2-induced c-fos-luc luciferase activity (Primate GnRH-2 receptor [12]): -6.19 log IC50 (concentration unit not printed)
